This note sets out measurements from article PMC3670934, “Milligram Production and Biological Activity Characterization of the Human Chemokine Receptor CCR3” (PLoS ONE, 2013).

In general, Kd refers to a measure of binding affinity in units of concentration. Read a high Kd as weaker binding. As a reminder, the kon is a measure of how fast the partners come together. High values mean fast association, low ones slow association. In general, koff refers to a measure of how fast the partners let go of each other. Lower therefore signals slow dissociation.

The chains are these.
B1: commercial recombinant human CCL11 (PeproTech) (ligand)
chain: not shown
notes: recombinant human chemokine CCL11, bought; No catalogue number printed; probably the mature chemokine (surmised); also called CCL11 from PeproTech; commercial CCL11; source: bought: PeproTech (USA)
B2: CCL24 (eotaxin-2), home-made recombinant (ligand, human, UniProt O00175 27-119, looked up)
chain: VVIPSPCCMFFVSKRIPENRVVSYQLSSRSTCLKAGVIFTTKKGQQFCGDPKQEWVQRYMKNLDAKQKKASPRARAVAVKGPVQRYPGNQTTC
notes: CCL24 (eotaxin-2), endogenous ligand of human CCR3; The detailed protocol is said to be submitted in a separate manuscript; Probably the mature chemokine without its signal peptide (surmised); also called eotaxin-2/CCL24; home-made CCL24
B3: commercial recombinant human CCL24 (PeproTech) (ligand, UniProt O00175 27-119, looked up)
chain: B2 chain
notes: recombinant human chemokine CCL24, bought; No catalogue number printed; probably the mature chemokine (surmised); also called CCL24 from PeproTech; commercial CCL24; source: bought: PeproTech (USA)
B4: CCL11 (eotaxin), home-made recombinant (ligand)
chain: not shown
notes: CCL11 (eotaxin), endogenous ligand of human CCR3; The detailed protocol is said to be submitted in a separate manuscript; Probably the mature chemokine without its signal peptide (surmised); also called eotaxin/CCL11; home-made CCL11
B5: Human chemokine receptor CCR3 with a C-terminal 10-His tag (receptor, UniProt P51677 1-355, looked up)
chain: MTTSLDTVETFGTTSYYDDVGLLCEKADTRALMAQFVPPLYSLVFTVGLLGNVVVVMILIKYRRLRIMTNIYLLNLAISDLLFLVTLPFWIHYVRGHNWVFGHGMCKLLSGFYHTGLYSEIFFIILLTIDRYLAIVHAVFALRARTVTFGVITSIVTWGLAVLAALPEFIFYETEELFEETLCSALYPEDTVYSWRHFHTLRMTIFCLVLPLLVMAICYTGIIKTLLRCPSKKKYKAIRLIFVIMAVFFIFWTPYNVAILLSSYQSILFGNDCERSKHLDLVMLVTEVIAYSHCCMNPVIYAFVGERFRKYLRHFFHRHLLMHLGRYIPFLPSEKLERTSSVSPSTAEPELSIVF
notes: human chemokine receptor CCR3; theoretical molecular weight with the tag 42 kDa; The form full length is read from the printed primers (start codon to the last codons of the gene, then tag and stop); By the reverse primer two glycine codons seem to lie between the last CCR3 residue and the ten histidines (surmised from the primer); also called hCCR3; source: also in detergent cell lysate; not …

Data set [1] has as its target B5. Kind of data set: SPR; Biacore T100; His-tagged hCCR3 immobilised on a Ni-activated NTA sensor chip, chemokine flowed at 30 µl/min; 25°C; 10 mM HEPES, 0.15 M NaCl, 0.1% (wt/vol) DDM, pH 7.4; hCCR3 purified in DDM; 1:1 binding model, KD = kd/ka. The conditions noted are these: both partners purified. (In SPR one partner is held on a chip, and binding of the other changes the refractive index at the surface.)

The target in data set [2] is B5. Briefly: SPR; Biacore T100; His-tagged hCCR3 immobilised on a Ni-activated NTA sensor chip, chemokine flowed at 30 µl/min; 25°C; 10 mM HEPES, 0.15 M NaCl, 0.1% (wt/vol) FC-14, pH 7.4; hCCR3 purified in FC-14; 1:1 binding model, KD = kd/ka. Particulars: both partners purified.
Data set [3] has as its target B5. Described as above. Particulars: both partners purified. This is another data set of the same source.
The target of data set [4] is B5. Kind of data set: SPR; Biacore T100; His-tagged hCCR3 immobilised on a Ni-activated NTA sensor chip, chemokine flowed at 30 µl/min; 25°C; 10 mM HEPES, 0.15 M NaCl, 0.1% (wt/vol) DDM, pH 7.4; hCCR3 purified in DDM; 1:1 binding model, KD = kd/ka. The conditions noted are these: both partners purified. This is another data set of the same source.
Data set [5] deals with the molecule itself. Kind of data set: SDS-PAGE and western blot; hCCR3 after Ni affinity chromatography in FC-14; 4-12% NuPAGE Bis-Tris gel, LDS sample buffer with reducing agent, not heated; anti-His blot; bands at about 34, 58, 82 and 115 kDa.

B1 came in with a Kd in data set [1] of 0.73 µM.
With B2, the kon in data set [2] amounted to 23000 M⁻¹ s⁻¹. In data set [3], the Kd worked out at 1.6 µM, the koff worked out at 0.037 s⁻¹ and the kon came to 22000 M⁻¹ s⁻¹. In data set [4], the Kd worked out at 0.058 µM, the koff came to 0.003 s⁻¹ and the kon was 51000 M⁻¹ s⁻¹.
For the molecule B3, binding in data set [1] was put at a Kd of 0.21 µM.
B4: in data set [3], the Kd was determined as 1.3 µM, the koff was 0.063 s⁻¹ and the kon is 49000 M⁻¹ s⁻¹. In data set [4], this molecule returned a Kd of 0.07 µM, a dissociation rate constant (koff) of 0.017 s⁻¹ and a kon of 250000 M⁻¹ s⁻¹.
For B5, the binding result in data set [5] is listed as “binds”.
